Test results: paper doi:10.1101/2023.06.06.543845 (bioRxiv, 2023)

Columns and labels:
[1] = biological target: T1, Mycobacterium tuberculosis NrdI (Mycobacterium tuberculosis, UniProt P9WIZ3); assay: crystal structure
T1 sequence: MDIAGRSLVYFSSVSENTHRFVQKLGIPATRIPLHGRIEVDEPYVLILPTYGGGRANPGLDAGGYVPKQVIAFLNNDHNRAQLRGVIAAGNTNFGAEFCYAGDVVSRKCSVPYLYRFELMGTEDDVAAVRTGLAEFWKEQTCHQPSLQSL

crystal structure = biological target: the molecule itself; assay: crystal structure

B1: Mycobacterium tuberculosis NrdF2 (R2 subunit of the Class Ib ribonucleotide reductase) (enzyme)
chain: TGNAKLIDRVSAINWNRLQDEKDAEVWDRLTGNFWLPEKVPVSNDIPSWGTLTAGEKQLTMRVFTGLTMLDTIQGTVGAVSLIPDALTPHEEAVLTNIAFMESVHAKSYSQIFSTLCSTAEIDDAFRWSEENRNLQRKAEIVLQYYRGDEPLKRKVASTLLESFLFYSGFYLPMYWSSRAKLTNTADMIRLIIRDEAVHGYYIGYKFQRGLALVDDVTRAELKDYTYELLFELYDNEVEYTQDLYDEVGLTEDVKKFLRYNANKALMNLGYEALFPRDETDVNPAILSALSPNADENHDFFSGSGSSYVIGKAVVTEDDDWDF
[1]
  stoichiometry N: 2 NrdF2 per NrdI
Crystal structure
  stoichiometry N: 2
